The record followed here is patent US20250270297A1 (DAEGU GYEONGBUK INSTITUTE OF SCIENCE AND TECHNOLOGY, published 2025).

B1: C32 (Fc fusion)
VL: DIQMTQSPAIMSASPGERVTMTCSASSSIRYIYWYQQKPGSSPRLLIYDTSNVAPGVPFRFSGSGSGTSYSLTINRMEAEDAATYYCQEWSGYPYTFGGGTKVEIKR
VH: QVQLVQSGAEVKKPGSSVKVSCKASGGSFSSYAISWVRQAPGQGLEWMGGIIPIFGTANYAQKFQGRVTITADESTSTAYMELSSLRSEDTAVYYCANLRGGSSHYGMDVWGQGTLVTVSS
B2: C8 (Fc fusion)
VL: QSALTQPASASGSPGQSVTISCTGTSSDVGGYNYVSWYQQHPGKAPKLMIYDVSKRPSGVSDRFSGSKSGNTASLTISGLQAEDGADYYCSSYRRGRTVVFGGGTKLTVL
VH: QVQLQQWGGGLVQPGGSLRLSCAASGFTFSSYAMSWVRQAPGKGLEWVSAISGSGGSTYYADSVKGRFTISRDNSKNTLYLQMNSLRAEDTAVYYCAKNYFGNPRGFDYWGQGTMVTVSS
B3: C11 (Fc fusion)
VL: ETTLTQSPGTLSVSPGERVTLSCRASQSVSSYLAWYQQKPGQAPRLLIYGASTRATGIPDRFSGSGSGTDFTLTISRLEPEDFAVYYCQQYGISPLNFGGGTKVEIK
VH: QVQLVQSGAEVKKPGSSVKVSCKASGGTFSSYAISWVRQAPGQGLEWMGGVIPIFGTANYAQKFRGRVTMTTDTSTSTAYMELRSLTSDDTAVYYCASPQGTWSTFLEWQGAFSVWGQGTTVTVSS

T1 sequence (Q9BYF1 18-740 limits assumed): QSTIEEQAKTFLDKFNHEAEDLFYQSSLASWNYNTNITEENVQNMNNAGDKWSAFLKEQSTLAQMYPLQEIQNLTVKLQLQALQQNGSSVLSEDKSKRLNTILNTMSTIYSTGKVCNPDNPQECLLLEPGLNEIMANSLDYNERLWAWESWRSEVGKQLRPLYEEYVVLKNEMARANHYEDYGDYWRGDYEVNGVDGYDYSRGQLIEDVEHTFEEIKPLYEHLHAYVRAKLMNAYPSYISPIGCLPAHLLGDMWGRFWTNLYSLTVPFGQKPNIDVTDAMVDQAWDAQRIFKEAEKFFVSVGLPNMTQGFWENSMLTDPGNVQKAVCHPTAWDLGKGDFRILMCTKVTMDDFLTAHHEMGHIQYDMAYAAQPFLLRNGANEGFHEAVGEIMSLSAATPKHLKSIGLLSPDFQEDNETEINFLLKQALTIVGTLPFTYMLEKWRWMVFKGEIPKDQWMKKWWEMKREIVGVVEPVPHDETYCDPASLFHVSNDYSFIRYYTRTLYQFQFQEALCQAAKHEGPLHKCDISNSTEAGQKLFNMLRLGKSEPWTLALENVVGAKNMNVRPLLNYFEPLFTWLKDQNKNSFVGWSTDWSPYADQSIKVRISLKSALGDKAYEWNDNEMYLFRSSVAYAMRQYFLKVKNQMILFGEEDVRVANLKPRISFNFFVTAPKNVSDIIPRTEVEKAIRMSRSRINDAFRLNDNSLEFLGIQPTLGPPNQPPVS

This test addresses T1, rhACE2 (ACRO, Human ACE2/ACEH Protein, His Tag, #AC2-H52H8) (human, UniProt Q9BYF1 18-740).
T1 construct: not shown: His tag
Briefly: ELISA, rhACE2 coated at 0.2 ug/well, antibody at 0.02-2.5 ug/ml, anti-human-Fc-HRP, absorbance at 450 nm. (In general: ELISA stands for enzyme-linked immunosorbent assay.)
In the case of B1, the binding result is given as “binds”.
For the molecule B2, the binding result was “binds”.
The same measure for B3: “binds”.
